molecular target: TNF receptor-associated factor 2 (TRAF2) (human (endogenous in HEK293)) (UniProt Q12933)
Sequence of UniProt Q12933 (Q12933 whole entry): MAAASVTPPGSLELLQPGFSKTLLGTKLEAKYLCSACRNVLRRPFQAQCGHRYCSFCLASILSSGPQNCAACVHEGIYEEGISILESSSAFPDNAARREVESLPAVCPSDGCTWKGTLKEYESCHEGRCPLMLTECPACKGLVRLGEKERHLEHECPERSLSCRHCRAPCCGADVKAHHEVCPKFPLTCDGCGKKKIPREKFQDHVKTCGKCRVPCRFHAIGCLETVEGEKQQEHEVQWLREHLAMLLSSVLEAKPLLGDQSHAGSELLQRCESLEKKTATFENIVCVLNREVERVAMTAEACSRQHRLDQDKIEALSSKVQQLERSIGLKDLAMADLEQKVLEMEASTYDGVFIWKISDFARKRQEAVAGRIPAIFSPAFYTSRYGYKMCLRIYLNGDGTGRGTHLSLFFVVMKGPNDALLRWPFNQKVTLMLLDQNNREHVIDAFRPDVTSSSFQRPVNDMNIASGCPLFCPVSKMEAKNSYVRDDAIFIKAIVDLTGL

Row | Substance | NF-κB luciferase reporter activity in transiently transfected HEK293 reporter cells, decrease compared to full-length GRA15II-51–550
1 | GRA15II-51-550 with the deletion AAEE160-163, fused to GFP (from UniProt A0A125YGQ9 51-550) (domain or fragment) | 60%
2 | GRA15II-51-550 with the deletion SQQE430-433, fused to GFP (from UniProt A0A125YGQ9 51-550) (domain or fragment) | 60%
3 | GRA15II-51-550 with the deletions AAEE160-163/SQQE430-433, fused to GFP (from UniProt A0A125YGQ9 51-550) (domain or fragment) | 75%

— publication PMC6635525
